doi:10.1101/2024.11.01.621267 (bioRxiv, 2024)

What follows are binders tested against recombinant full-length RACK1 protein (ITC) (human, UniProt P63244 1-317) (assay: ITC; LARP4 peptide (400 μM; 300 μM for 600–625) injected into RACK1 (40 μM; 30 μM) in the cell; iTC200; 298K; 20 mM HEPES, 300 mM NaCl, 10% glycerol, 1 mM DTT pH 7.5; triplicate). Details: both partners purified.

| Binder | Kd | dH | stoichiometry N | Ka |
| --- | --- | --- | --- | --- |
| HsLARP4 peptide 587–637 (La-related protein 4 (LARP4), human, residues 587-637; source: synthetic peptide (GenScript)) peptide: TTKPSRASTASPCNNNINAATAVALQEPRKLSYAEVCQKPPKEPSSVLVQP | 2300 nM | -7.8 kcal/mol | 1 | 440000 M⁻¹ |
| HsLARP4 peptide 575–625 (La-related protein 4 (LARP4), human, residues 575-625; source: synthetic peptide (GenScript)) peptide: LNQTTIPVSPPSTTKPSRASTASPCNNNINAATAVALQEPRKLSYAEVCQK | 2700 nM | -5.7 kcal/mol | 1 | 370000 M⁻¹ |

Further lines, results first:

| Kd | dH | stoichiometry N | Ka | Binder |
| --- | --- | --- | --- | --- |
| 3000 nM | -8.1 kcal/mol | 0.9 | – | RKLSYAEVCQK (La-related protein 4 (LARP4), human, residues 615-625 (within CR2); source: synthetic peptide (GenScript)) [HsLARP4 peptide 615–625] |
| 2000 nM | -8.3 kcal/mol | 0.8 | – | QEPRKLSYAEVCQK (La-related protein 4 (LARP4), human, residues 612-625; source: synthetic peptide (GenScript)) [HsLARP4 peptide 612–625] |
